The values below come from article PMC8092228 (mBio, 2021).

The test deals with LOV-PAS-HK construct of Brucella abortus LOV-HK (residues 15 to 489), called the full-length protein (Brucella abortus). Put plainly: SEC with static light scattering (SEC-SLS).

LOV-PAS-HK construct of Brucella abortus LOV-HK (residues 15 to 489), called the full-length protein (enzyme), sequence (A9MBM8 15-489 limits assumed): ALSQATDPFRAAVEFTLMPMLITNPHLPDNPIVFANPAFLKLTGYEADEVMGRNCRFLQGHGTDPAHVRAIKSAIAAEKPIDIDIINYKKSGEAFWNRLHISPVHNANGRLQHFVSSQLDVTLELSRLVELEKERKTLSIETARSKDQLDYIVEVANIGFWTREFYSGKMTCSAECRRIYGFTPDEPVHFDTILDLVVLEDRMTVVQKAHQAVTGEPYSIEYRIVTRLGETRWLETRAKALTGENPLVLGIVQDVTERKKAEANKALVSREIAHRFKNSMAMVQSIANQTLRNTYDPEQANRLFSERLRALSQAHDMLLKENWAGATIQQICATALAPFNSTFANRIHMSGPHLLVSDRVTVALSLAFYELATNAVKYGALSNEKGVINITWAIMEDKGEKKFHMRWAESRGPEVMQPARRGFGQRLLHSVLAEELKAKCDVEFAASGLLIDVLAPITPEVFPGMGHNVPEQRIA

For “LOV-PAS-HK construct of Brucella abortus LOV-HK (residues 15 to 489), called the full-length protein (enzyme)”, the stoichiometry N – broadly, the number of molecules, sites or subunits per partner or assembly – came out at 2.
